Results on four molecules are retold here after doi:10.1101/2021.02.18.431817.

Assay in all cases: EMSA
Series [1] has as its target T1, AtGAPC1 (Arabidopsis thaliana, UniProt P25858 1-338).
For a further series, the target named is AtGAPC2 (Arabidopsis thaliana, UniProt Q9FX54 1-338).
Another series deals with GAPDH from rabbit muscle (rabbit, UniProt P46406 1-333).
The target in series [2] is T1, AtGAPC1. This is another data set of the same source.

Where two headings read alike, the source gives them in different places.

T1 sequence (P25858 whole entry): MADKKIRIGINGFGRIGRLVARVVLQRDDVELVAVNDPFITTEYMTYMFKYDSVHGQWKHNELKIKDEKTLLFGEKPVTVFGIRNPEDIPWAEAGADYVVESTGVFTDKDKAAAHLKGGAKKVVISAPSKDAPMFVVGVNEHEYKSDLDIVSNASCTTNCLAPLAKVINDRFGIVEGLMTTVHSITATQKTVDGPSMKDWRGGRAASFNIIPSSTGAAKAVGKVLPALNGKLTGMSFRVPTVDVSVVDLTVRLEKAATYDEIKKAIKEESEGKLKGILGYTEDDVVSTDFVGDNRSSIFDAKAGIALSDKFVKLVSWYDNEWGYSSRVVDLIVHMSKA
Sequence of GAPDH from rabbit muscle (P46406 whole entry): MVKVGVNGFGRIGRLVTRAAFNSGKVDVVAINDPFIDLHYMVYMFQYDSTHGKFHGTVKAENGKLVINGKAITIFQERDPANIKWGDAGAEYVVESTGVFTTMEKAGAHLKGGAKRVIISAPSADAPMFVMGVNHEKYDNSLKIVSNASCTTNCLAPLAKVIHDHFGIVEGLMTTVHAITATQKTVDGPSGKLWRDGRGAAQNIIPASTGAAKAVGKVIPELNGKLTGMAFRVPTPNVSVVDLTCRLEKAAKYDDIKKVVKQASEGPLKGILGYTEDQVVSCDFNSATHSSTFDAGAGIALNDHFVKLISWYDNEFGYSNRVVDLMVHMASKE
Sequence of AtGAPC2 (Q9FX54 whole entry): as the sequence (P25858 whole entry) above, with N61H, I65V, E68D, A92G, Y98F, A227S, L274M counted along it

As to ACCAGAUUUUUUUCGCCGGAGUUUGUUUUGAUCCA (ssRNA) [SAP3 M1], the binding result with AtGAPC1 [1], with AtGAPC2 and with GAPDH from rabbit muscle was “binds” in each case.

For the molecule UUAGCGUUUUAAUGUUGAGUGAGUAAGUUAAGGGGUU (ssRNA) [Random RNA (AT5G16470 5'-UTR, mutated M2)], the binding result in the series with AtGAPC1 [2] is “no binding”.

For the molecule AUAUAUGAGAUUAGGGUUU (ssRNA) [M2-RNA (consensus)], the binding result with AtGAPC1 [2] was “binds”.

With AUAUAUUCUCCGGAGAA (ssRNA) [M1-RNA (consensus)], the binding result with AtGAPC1 [2] is on record as “binds”.
